# Data as given in patent publication US20090208512A1.
# Target: human recombinant Factor VIII (human) (UniProt P00451)
# Experiment: cell-based or functional assay
# Sequence of UniProt P00451 (P00451 20-2351): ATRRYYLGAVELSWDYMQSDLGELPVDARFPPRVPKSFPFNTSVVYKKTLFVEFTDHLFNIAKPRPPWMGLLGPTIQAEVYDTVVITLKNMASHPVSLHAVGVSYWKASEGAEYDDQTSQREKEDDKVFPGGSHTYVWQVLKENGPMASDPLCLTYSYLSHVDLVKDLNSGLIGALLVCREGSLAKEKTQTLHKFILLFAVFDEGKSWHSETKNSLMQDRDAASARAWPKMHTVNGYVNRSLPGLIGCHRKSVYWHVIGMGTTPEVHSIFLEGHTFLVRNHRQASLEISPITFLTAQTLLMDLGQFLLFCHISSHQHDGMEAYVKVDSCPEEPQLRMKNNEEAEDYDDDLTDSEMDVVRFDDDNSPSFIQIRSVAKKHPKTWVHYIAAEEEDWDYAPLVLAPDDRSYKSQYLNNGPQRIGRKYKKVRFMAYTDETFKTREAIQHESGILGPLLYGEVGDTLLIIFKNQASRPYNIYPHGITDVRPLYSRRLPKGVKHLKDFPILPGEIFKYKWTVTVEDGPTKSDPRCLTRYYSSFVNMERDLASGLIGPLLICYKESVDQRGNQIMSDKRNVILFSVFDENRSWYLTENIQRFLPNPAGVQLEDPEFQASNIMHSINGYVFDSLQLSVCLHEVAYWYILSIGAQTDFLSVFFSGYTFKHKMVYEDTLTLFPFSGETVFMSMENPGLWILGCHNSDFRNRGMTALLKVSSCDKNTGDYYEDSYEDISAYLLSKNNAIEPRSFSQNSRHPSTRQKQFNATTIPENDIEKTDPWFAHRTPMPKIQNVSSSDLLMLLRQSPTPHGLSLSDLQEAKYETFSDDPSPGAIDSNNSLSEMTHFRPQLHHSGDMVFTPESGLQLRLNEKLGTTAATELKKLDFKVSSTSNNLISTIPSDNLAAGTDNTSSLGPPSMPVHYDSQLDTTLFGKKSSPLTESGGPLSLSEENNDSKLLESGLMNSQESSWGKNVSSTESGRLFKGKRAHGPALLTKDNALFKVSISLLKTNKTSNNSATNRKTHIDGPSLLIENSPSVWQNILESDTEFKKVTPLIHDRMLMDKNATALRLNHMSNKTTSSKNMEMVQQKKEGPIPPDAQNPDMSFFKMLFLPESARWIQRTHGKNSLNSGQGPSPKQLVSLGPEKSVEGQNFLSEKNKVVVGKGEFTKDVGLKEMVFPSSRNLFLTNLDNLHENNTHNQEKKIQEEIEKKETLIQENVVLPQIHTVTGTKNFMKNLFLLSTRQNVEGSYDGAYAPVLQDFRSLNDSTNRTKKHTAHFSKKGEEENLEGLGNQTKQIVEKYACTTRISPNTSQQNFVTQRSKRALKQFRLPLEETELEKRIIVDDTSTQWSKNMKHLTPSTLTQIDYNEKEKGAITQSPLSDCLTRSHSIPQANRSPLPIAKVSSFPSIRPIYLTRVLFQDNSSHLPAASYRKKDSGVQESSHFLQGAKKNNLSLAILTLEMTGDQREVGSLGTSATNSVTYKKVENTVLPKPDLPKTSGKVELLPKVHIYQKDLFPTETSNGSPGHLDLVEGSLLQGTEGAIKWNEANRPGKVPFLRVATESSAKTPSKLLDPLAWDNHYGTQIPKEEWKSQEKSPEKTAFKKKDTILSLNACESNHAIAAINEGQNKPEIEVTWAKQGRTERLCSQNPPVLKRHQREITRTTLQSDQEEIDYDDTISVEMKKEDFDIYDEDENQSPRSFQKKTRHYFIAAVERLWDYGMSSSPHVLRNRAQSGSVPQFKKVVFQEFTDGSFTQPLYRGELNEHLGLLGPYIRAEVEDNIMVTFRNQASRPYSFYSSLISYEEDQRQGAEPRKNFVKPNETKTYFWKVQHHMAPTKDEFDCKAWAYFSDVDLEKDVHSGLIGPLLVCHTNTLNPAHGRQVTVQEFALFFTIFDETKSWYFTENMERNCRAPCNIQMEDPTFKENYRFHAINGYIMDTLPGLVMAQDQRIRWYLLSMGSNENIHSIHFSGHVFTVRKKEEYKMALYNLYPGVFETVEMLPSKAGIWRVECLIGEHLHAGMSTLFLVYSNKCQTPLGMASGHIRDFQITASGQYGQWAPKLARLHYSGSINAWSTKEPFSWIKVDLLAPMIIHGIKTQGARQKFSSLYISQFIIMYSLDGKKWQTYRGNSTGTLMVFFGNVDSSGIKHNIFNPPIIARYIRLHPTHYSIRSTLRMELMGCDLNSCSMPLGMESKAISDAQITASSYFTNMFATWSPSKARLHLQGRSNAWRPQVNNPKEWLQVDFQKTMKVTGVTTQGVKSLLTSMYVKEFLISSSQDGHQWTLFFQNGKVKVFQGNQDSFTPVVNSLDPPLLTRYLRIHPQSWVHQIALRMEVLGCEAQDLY
substance,measurement,value
von Willebrand Factor (from UniProt P04275 764-2813),inhibition of hydrolysis of Factor VIII by anti-Factor VIII IgG,36.9%
